Biological target: human BMPR1A, endogenous on human Saos2 cells (human) (UniProt P36894)
Experiment: cell-based or functional assay

Chain of UniProt P36894 (P36894 24-532 limits assumed): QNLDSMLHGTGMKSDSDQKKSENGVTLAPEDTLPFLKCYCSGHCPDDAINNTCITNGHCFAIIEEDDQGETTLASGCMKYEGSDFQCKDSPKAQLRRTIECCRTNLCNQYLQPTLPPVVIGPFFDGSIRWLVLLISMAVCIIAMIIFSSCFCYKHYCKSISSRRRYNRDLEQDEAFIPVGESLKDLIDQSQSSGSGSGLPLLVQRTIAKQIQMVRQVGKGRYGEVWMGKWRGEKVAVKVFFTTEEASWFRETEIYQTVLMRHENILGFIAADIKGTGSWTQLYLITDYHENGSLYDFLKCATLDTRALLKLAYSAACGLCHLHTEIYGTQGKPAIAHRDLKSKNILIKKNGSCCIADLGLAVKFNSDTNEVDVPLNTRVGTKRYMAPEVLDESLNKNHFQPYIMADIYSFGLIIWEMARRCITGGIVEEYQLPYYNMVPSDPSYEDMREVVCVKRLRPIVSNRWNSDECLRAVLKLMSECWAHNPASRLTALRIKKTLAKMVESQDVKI

Sp7 gene expression levels in Saos2 cells (qPCR, relative to control antibody): 2.4 fold
B1: anti-BMPR1A antibody 5M107 (antibody, part only; not given: light chain and constant regions, V domains shown, part only)
VH: EVQLQQSGPELVKPGTSVKISCKASGYSFTGYYMHWVKQSQVKSLEWIGRINPDNGGRTYNQIFKDKASLTVHKSSSTAYMELHSLTSDDSAVYYCTRERGQYGNYGGFSDWGQGTLVT

— patent publication US20130089560A1
